Reference: patent publication US5851983A, “Elastase inhibitory polypeptide and process for production thereof by recombinant gene technology” (Teijin Limited, priority 1987, dated 1998)

Assays:
[1] = molecular target: T1, Human plasma kallikrein (Homo sapiens, UniProt P03952); test: Assay for kallikrein inhibitory activity (Example 25); format: biochemical; details: final concentration up to ×10^-5 M; enzyme 1.0 × 10^-7 M
T1 construct: (7) Human plasma kallikrein (Kabi, Daiichi Kagaku Yakuhin); purchased Kabi (via Daiichi Kagaku Yakuhin); host or cells: human plasma
Protocol: H. Human plasma kallikrein (Protogene, Funakoshi Yakuhin)
Kallikrein: 50 mM Tris-HCl, 361 mM NaCl, 0.01 mg/ml polybrene (pH 7.8) […]
Substrate solution: for the enzymes F, G, H and I, the following substrate f, g, h or i, respectively, was dissolved to a final concentration shown in Table 14.
h. H.D-Pro-Phe-Arg-pNA (Kabi Vitram)
To wells of an ELISA 96-well microtiter plate, were added a solution of (Arg^59 -Ala^107) SLPI obtained in Example 23 and then the enzyme solution, and the mixture was incubated at 37° C. for 10 minutes. Next, the substrate solution was added to develop the color, whose absorption was then measured at 405 nm. As a control, SLPI was used.

[2] = Partial hydrolysis with healthy human saliva (Examples 15, 16); format: in vitro ADME; details: 37° C.
Protocol: Healthy human saliva was filtered through a 0.22 μm filter (Milex GS, Milipore), and in the filtrate was dissolved 1 mg/ml of the SLPI prepared in Reference Example 1. The mixture was then incubated at 37° C. for 30 days. As a control, the SLPI was dissolved in physiological saline (Physisalz; Fuso Yakuhin Kogyo), and the mixture was incubated at 37° C. for 30 days.
With an elapse of time, samples were taken and to each sample were added a Tris-HCl buffer (pH 6.8), SDS, 2-mercaptoethamel and glycerol, to final concentration of 60 mM, 2% by weight, 4% by weight and 10% by weight, respectively, and the mixture was subjected to an SDS-PAGE (U.K. Laemmli, Nature, 227, 680, 1970). The gel after electrophoresis was stained with Coomussie Brilliant Blue.
Next, polypeptides in the polyacrylamide gel thus obtained were electrically transferred to a membrane (Immobilon; Milipore) using a Milli Blot-SDE apparatus. After the transfer, the membrane was stained with 0.1% by weight of Coomassie Blue in 40% by weight methanol/1% by weight acetic acid, and washed with water. Then, after air drying, the bands b, c, d and e were excised, and for each band, the PTH-amino acids were cleaved from the N-terminus with an Applied Biosystems Protein Sequences (Applied Biosystems; 470A) and analysed with a PTH analyser (Applied Biosystems, 120A) to determine an amino acid sequence for 10 amino acids from the N-terminus.
According to the same procedure as described in Example 15, (Asn^55 -Ala^107) SLPI prepared in Example 11 was treated with healthy human saliva at 37° C., and a result is shown in FIG. 13. […] After 12 hours, a new band g (MW about 5,500) appeared.
Next, according to the same procedure as described in Example 15, the band g was electrically transferred to a membrane and N-terminal amino acid sequence was analyzed. […] The 6th amino acid could not be determined. The N-terminal amino acid sequence of the band g corresponds to an amino acid sequence starting from Arg^59 of SLPI.

[3] = molecular target: T2, Bovine spleen trypsin (Bos taurus, UniProt P00760); test: Assay for trypsin inhibitor activity (Example 24); format: biochemical; details: enzyme 2 × 10^-7 M, substrate 1.0 × 10^-3 M
T2 construct: purchased Sigma
T2 sequence (P00760 24-246): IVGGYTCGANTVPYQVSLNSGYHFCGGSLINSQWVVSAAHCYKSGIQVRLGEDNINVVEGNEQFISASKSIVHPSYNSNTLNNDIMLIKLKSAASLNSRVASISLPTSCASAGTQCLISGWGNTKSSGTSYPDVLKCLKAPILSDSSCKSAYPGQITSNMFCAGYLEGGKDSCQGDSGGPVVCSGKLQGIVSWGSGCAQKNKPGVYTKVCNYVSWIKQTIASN
Protocol: The following assay method was used.
Buffer: 0.1M (2-hydroxyethyl)piperazine-N'-2-ethansulfonic acid (HEPES), 0.5M NaCl, pH 7.5.
Enzyme concentration: the following enzyme was dissolved in the above-mentioned buffer to a concentration 9 times that shown in Table 12.
B. Bovine spleen trypsin (Sigma)
Substrate solution: for the enzymes A, B, C, D and E, the following substrate a, b, c, d or e, respectively, was dissolved in a solution of DMSO+the above-mentioned buffer (1:9) (note, final concentration of DMSO was 10% in the buffer) to a concentration of 9 times that shown in Table 12. […]
To wells of an ELISA 96-well microtiter plate, were added 120 μl of the buffer and the 20 μl of a sample solution of (Arg^59 -Ala^107) SLPI obtained in Example 23, followed by 20 μl of the enzyme solution. The mixture was reacted at 37° C. for 10 minutes. Next, 20 μl of the substrate was added, and developed at 37° C. The developed color was measured by absorption at 405 nm.
As a control the same procedure was carried out using SLPI.

T1 sequence (P03952 391-638 limits assumed): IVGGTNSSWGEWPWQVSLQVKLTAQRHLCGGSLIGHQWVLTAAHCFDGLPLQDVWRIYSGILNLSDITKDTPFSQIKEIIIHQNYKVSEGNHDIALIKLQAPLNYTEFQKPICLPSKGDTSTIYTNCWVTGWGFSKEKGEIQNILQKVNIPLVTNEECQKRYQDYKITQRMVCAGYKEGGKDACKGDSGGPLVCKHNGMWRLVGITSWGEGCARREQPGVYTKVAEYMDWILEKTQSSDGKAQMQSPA
T1 sequence (P03952 20-390 partner limits assumed): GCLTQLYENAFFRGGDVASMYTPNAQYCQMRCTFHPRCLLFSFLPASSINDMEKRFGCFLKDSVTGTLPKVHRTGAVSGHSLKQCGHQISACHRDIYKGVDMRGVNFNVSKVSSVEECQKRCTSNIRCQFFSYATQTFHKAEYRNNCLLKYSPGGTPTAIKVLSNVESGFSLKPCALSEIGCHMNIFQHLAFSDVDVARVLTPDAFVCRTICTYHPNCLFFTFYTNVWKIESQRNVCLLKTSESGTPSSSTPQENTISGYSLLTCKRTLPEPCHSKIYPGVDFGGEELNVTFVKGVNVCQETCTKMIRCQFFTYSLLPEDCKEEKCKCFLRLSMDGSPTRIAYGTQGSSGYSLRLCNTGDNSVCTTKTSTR

B1: SLPI: Human secretory leukoprotease inhibitor; recombinant SLPI of Reference Example 1 used as control (protein)
chain: SGKSFKAGVCPPKKSAQCLRYKKPECQSDWQCPGKKRCCPDTCGIKCLDPVDTPNPTRRKPGKCPVTYGQCLMLNPPNFCEMDGQCKRDLKCCMGMCGKSCVSPVKA
inhibitory activity to kallikrein [1]: did not exhibit inhibitory activity | SDS-PAGE band of SLPI (MW about 13,000) during incubation in healthy human saliva ([2]; 1 mg/ml, up to 30 days): decreased as time elapid | SDS-PAGE band after incubation in physiological saline (control) ([2]; 30 days): maintained a band having an MW of about 13,000 during the incubation | cleavage sites in healthy human saliva ([2]; SDS-PAGE bands, N-terminal sequencing): between Arg^20 -Try^21, Arg^58 -Arg^59, Leu^72 -Met^73, and Met^73 -Leu^74 | IC50 [3]: 330 nM
